These results are taken from patent US20120253008A1 (Ablynx, published 2012).

The target of test [1] is T1, human serum albumin (human, UniProt P02768 25-609).
T1 construct: also called HSA
As to the kind of experiment: SPR, Biacore 3000, HSA on CM5 chip, pH5 against pH7. As for the experimental part:
(§1) In brief, HSA and cynoSA were amine-coupled to a separate CM5 sensor chip at a density of respectively 1800RU and 1900RU. […] The three buffers used contained 50 mM phosphate, 150 mM NaCl and 0.005% surfactant P and were adjusted to either pH5, pH7 or pH8. Samples were injected at a flow-rate of 45 μL/min, association and dissociation were monitored during 120 sec and 300 sec. Binding curves were subsequently used to calculate the KD, association—and dissociation-rate constants with the BiaEvaluation software.
In general terms: In SPR one partner is held on a chip, and binding of the other changes the refractive index at the surface.

In test [2] the target is T2, cynomolgus monkey serum albumin (cynomolgus monkey, UniProt A2V9Z4 25-608).
T2 construct: amine-coupled to a CM5 chip; also called CSA; cynoSA
T2 sequence (A2V9Z4 25-608 limits assumed): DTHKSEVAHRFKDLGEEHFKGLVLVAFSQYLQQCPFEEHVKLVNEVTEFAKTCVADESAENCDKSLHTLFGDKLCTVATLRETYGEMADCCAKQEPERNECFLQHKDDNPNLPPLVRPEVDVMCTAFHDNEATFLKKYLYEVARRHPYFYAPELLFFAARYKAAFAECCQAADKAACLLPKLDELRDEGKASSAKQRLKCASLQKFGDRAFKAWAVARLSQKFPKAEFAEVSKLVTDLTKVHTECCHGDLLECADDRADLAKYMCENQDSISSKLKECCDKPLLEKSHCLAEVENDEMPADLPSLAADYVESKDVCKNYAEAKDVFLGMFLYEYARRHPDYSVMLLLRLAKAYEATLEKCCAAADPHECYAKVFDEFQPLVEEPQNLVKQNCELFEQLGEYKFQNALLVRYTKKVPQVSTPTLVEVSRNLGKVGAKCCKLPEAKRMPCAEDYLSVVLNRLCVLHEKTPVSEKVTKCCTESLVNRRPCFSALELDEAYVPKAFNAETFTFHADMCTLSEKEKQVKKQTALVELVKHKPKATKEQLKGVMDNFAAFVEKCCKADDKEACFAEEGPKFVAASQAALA
As to the kind of experiment: SPR, Biacore 3000, cynoSA on CM5 chip, pH5 against pH7. On the procedure:
as §1

The next test deals with T3, von Willebrand factor (human, UniProt P04275 764-2813).
T3 construct: vWF of the human plasma in which the compounds were diluted; multimeric; also called vWF; VWF
As to the kind of experiment: inhibition ELISA: ristocetin-induced binding of plasma vWF to fixed human platelets (glycoprotein Ib), bound vWF detected with anti-VWF-HRP.

The target of test [3] is T1, human serum albumin. The test can be described thus: SPR, BIAcore 3000, HSA on CM5 chip. On the procedure: For this purpose, the fusion proteins were expressed in E. coli TG1 cells. […] Coating of the chip (CM5) was performed by amine coupling using NHS/EDC for activation and ethanolamine for deactivation (Biacore amine coupling kit). HBS-EP was used as flow buffer at a rate of 10 μl min-1. 20 μl of sample was injected for 120 s.

The target of test [4] is T1, human serum albumin. The test can be described thus: X-ray co-crystal structure and in silico modelling.
Description: The crystal structure was determined as follows: the purified proteins were used in crystallization trials employing both, a standard screen of approximately 1200 different conditions, as well as crystallization conditions identified using literature data. […] These conditions were also refined by systematically varying pH or precipitant concentrations. Crystals were obtained via the method of co-crystallization.
Crystals have been flash-frozen and measured at a temperature of 100K. The X-ray diffraction have been collected at the SWISS LIGHT SOURCE (SLS, Villigen, Switzerland) using cryogenic conditions. Data were processed using the programs XDS and XSCALE. The phase information necessary to determine and analyze the structure was obtained by molecular replacement. Subsequent model building and refinement was performed with the software packages CCP4 and COOT. The peptide parameterization was carried out with the program [sequence].

B1: 12A2 sv1-AAA-12A2 sv1-9GS-59C2 (VHH)
chain: DVQLVESGGGLVQPGGSLRLSCAASGRTFSYNPMGWFRQAPGKGRELVAAISRTGGSTYYPESVEGRFTISRDNAKRTVYLQMNSLRAEDTAVYYCAAAGVRAEQGRVRTLPSEYTFWGQGTQVTVSSAAAEVQLVESGGGLVQPGGSLRLSCAASGRTFSYNPMGWFRQAPGKGRELVAAISRTGGSTYYPESVEGRFTISRDNAKRTVYLQMNSLRAEDTAVYYCAAAGVRAEQGRVRTLPSEYTFWGQGTQVTVSSGGGGSGGGSRDWDFDVFGGGTPVGG
notes: bivalent anti-vWF Nanobody with one C-terminal 59C2 peptide; also called vWF-0055; vWF 0055
As to B1, the “fold decrease of affinity at pH5” value (with human serum albumin [1]; in test [2]) was ~10 fold in each case. In addition, the “IC50 (read off the curve)” value in the test with von Willebrand factor is ~10 nM.

B2: 2D3-56H5 fusion protein (other)
chain: EVQLVESGGSLVQPGGSLRLSCAASGFTFDDYAMSWVRQVPGKGLEWVSSINWSGTHTDYADSVKGRFTISRNNANNTLYLQMNSLKSEDTAVYYCAKNWRDAGTTWFEKSGSAGQGTQVTVSSGGGGSGGGSAAAFYDDYDVFGGGTPAGGAAAEQKLISEEDLNGAAHHHHHH
The Kd is the concentration at which binding is half-saturated. Usually koff stands for the rate constant with which the complex falls apart. The kon is the rate constant with which the complex forms. For the molecule B2, in the test with human serum albumin [3], the equilibrium dissociation constant (Kd) was ~1200 nM, the koff was 0.0093 s⁻¹ and the kon was determined as 7570 M⁻¹ s⁻¹.

B3: peptide of SEQ ID NO: 143 (peptide)
peptide: AAARYWDYDVFGGGTPVGGAAA
notes: 56E4 with one additional N-terminal and three C-terminal alanines; used for the co-crystal with HSA; also called peptide based on EXP56E4
As to B3, in the test with human serum albumin [4], the binding result is “binds”.
